Measurements taken from patent US9770493B2 (DSM IP ASSETS B.V., priority 2008, dated 2017).
Like-named read-outs stand apart in the source and are kept apart here. Peptide text beside a SMILES is read from it.

Tests used:
healthy volunteers = assay: Profile of Mood States (POMS) after drinks with different tryptophan sources (Example 6); assay type: in vivo, human; details: for mood changes (POMS total mood scores): after the intake, over the session
Procedure: Subjects were instructed to fast overnight; only water or tea without sugar was permitted. During five experimental morning sessions, subjects visited the laboratory to monitor plasma Trp/LNAA concentrations and mood following the intake of a drink containing different Trp or LNAA concentrations. The order of presentation of the various drinks was counterbalanced and the four experimental days were separated by a one-week period. On each experimental morning, a 312 ml drink was provided containing different tryptophan (Trp) or LNAA concentrations (Table 2). All drinks contained 0.10 g sweetener (acesulfame) and were filled up with plain water in order to reach 312 mL. A research assistant blind to the dietary conditions conducted the administration of the different drinks.
The POMS comprises five different subscales for mood; ranging from Anger, Depression, Fatigue and Tension that refer to a negative mood state, to Vigor concerning a positive mood.

[1] = design: species or system human; details: in vivo
From the text: The aim of the present study was to investigate in healthy volunteers plasma Trp/LNAA profiles and mood after the consumption of different tryptophan containing preparations.
Eighteen healthy students (9 males and 9 females: age between 18-30 years) participated in the study. Exclusion criteria for participation were chronic and current illness, history of psychiatric or medical illness, use of medication or drugs, alcohol consumption (>2 units/day), metabolic-, hormonal- or intestinal diseases and irregular diets or deviant eating habits (assessed by health and life-style questionnaires). Subjects participating in the experiment were in the normal range for the Body-Mass Index (BMI in kg/m^2 between 20-25) and female subjects are matched for contraception. Women participated during their mid-late follicular phase (day 4-10), while women using contraception participated when they actually used the contraception pill. […] All subjects participating in the experiment signed an Informed Consent Form. This study was conducted according to the EC principles of Good Clinical Practice (GCP) adopted by the 52nd WMA General Assembly, Edinburgh, Scotland, October 2000.
Subjects were instructed to fast overnight; only water or tea without sugar was permitted. During […] experimental morning sessions, subjects visited the laboratory to monitor plasma Trp/LNAA concentrations and mood following the intake of a drink containing different Trp or LNAA concentrations. The order of presentation of the various drinks was counterbalanced and the four experimental days were separated by a one-week period. On each experimental morning, a 312 ml drink was provided containing different tryptophan (Trp) or LNAA concentrations (Table 2). All drinks contained 0.10 g sweetener (acesulfame) and were filled up with plain water in order to reach 312 mL. A research assistant blind to the dietary conditions conducted the administration of the different drinks.
Blood samples were collected in duplicate before and 15, 30, 60, 90, 120, 180 and 210 minutes after ingestion in 5 ml vacutainer tubes containing sodium heparine and were then centrifuged at 5000 rpm for 5 min at 4° C. The resulting supernatants were mixed with sulfasalicyl acid (4 mg/100 microliter) and directly stored at −80° C. until analysis. Plasma amino acid analysis was conducted with HPLC, making use of a 2-3 μm Bischof Spherisorb ODS II column as described by van Eijk et al (J. Chromatogr. 1993: 620: 143-148). The plasma Trp/LNAA ratios were calculated by dividing the plasma molar tryptophan concentration by the sum of the plasma molar concentrations of the large neutral amino acids valine, isoleucine, leucine, tyrosine and phenylalanine. Statistical analysis took place by means of repeated measures multivariate and univariate analyses of variance (MANOVA and ANOVA) using the General Linear Model (GLM: SPSS 12.0 for Windows). All statistics were evaluated at a significance level of P=0.05.

pepsin [2] = target: T1, pepsin (Sus scrofa, UniProt P00791); assay: Test for protease resistancy (pepsin pH 4, SDS-PAGE); assay type: in vitro ADME; details: pepsin 1% w/w, 2 hours at 37 degrees C
T1 construct: purchased Sigma
Procedure: To test its digestibility in the human stomach, a 5% (w/w) solution of the intact protein was incubated with pepsin (Sigma; 1% w/w pepsin to intact protein) for 2 hours at 37 degrees C. in a Mc Ilvane buffer (0.2 M citric acid plus Na2HPO4) pH 4.0. The degree of protease resistancy is defined as the percentage of the protein that is not affected by the pepsin incubation. “Not affected” meaning that the molecular weight of the protein has not changed as a result of the pepsin incubation; “percentage of the protein” meaning the area under the curve after digestion times 100, divided by the area under the curve prior to digestion; “area under the curve” is the area of the protein having the initial molecular weight as provided by the quantitative analysis method used (see further).
Molecular weights are compared according to SDS-PAGE followed by staining according to the protocol specified hereunder. After staining of the gel, a digital image is prepared using the OptiGo imaging system (Isogen Life Science; www.isogen-life-science.com) followed by the quantitative analysis of selected protein bands using Totallab TL 100, version 2006 software (Nonlinear Dynamics Ltd; www.nonlinear.com) running under Windows XP.
All materials used for SDS-PAGE and staining were purchased from Invitrogen (Carlsbad, Calif., US). […] Staining was performed using Simply Blue Safe Stain (Collodial Coomassie G250).
Together with beta-lactoglobulin, alpha-lactalbumin forms the major protein constituent of whey. Because of its high Trp/LNAA ratio, isolated alpha-lactalbumin fractions as well as alpha-lactalbumin hydrolysates have gained popularity for enhancing plasma tryptophan levels. […] According to the present application, a pepsin-resistant molecule with a high Trp/LNAA ratio is essential to maintain high plasma Trp/LNAA ratios longer term. […] This was illustrated in the following experiment. […] After incubation both solutions were heated for 5 minutes at 80 degrees C. to terminate the reaction and small samples were subjected to SDS-PAGE (see Materials & Methods) to test the integrity of the various pepsin treated molecules.

[3] = earlier studies (Markus et al., 2000; Booij et al., 2006); cited from earlier work
[4] = test system: trypsin/chymotrypsin mixture; assay: Lysozyme hydrolysis by a trypsin/chymotrypsin mixture (in vitro digestibility, DH); assay type: in vitro ADME, Porcine; details: pH start 7.2, 2 hours at 37 degrees C
Procedure: (§1) Both incubations were carried out under pH conditions that are prevalent in the stomach (pepsin) and duodenum (trypsin/chymotrypsin). […] To prevent major pH changes as the result of the ongoing protein hydrolysis, incubation was carried out in a Mc Ilvane buffer (0.2 M citric acid plus Na2HPO4).

pepsin [5] = target: T1, pepsin; assay: Lysozyme hydrolysis by pepsin (in vitro digestibility, DH); assay type: in vitro ADME; details: pH start 2.8, 2 hours at 37 degrees C
Procedure: as §1

[6] = target: T2, microbial subtilisin (EC 3.4.21.62) (Bacillus licheniformis, UniProt P00780); assay: Susceptibility of lysozyme to subtilisin (Protex 6L) hydrolysis at elevated pH, DH; assay type: physicochemical
T2 construct: purchased Genencor (Leiden, The Netherlands) Protex 6L
T2 sequence (P00780 106-379): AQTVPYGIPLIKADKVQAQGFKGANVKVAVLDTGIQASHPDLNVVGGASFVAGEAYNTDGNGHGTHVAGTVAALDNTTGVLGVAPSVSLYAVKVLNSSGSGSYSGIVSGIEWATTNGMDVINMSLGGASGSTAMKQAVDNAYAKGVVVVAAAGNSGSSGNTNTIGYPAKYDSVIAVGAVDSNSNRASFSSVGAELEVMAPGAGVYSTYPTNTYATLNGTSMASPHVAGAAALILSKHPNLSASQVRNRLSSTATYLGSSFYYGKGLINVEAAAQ
Procedure: The Degree of Hydrolysis (DH) as obtained during incubation with the various proteolytic mixtures was monitored using a rapid OPA test (Nielsen, P. M.; Petersen, D.; Dambmann, C. Improved method for determining food protein degree of hydrolysis. Journal of Food Science 2001, 66, 642-646).
The incubation was carried out for 3 hours at 60 degrees C. with a constant adjustment of the pH using 1M NaOH. The incubations yielded slightly turbid solutions without any significant precipitates. After a heating step to inactivate the subtilisin activity, the DH values of the various incubations were measured according to the protocol described in the Materials & Methods section. […] The pH 7.0 incubation yielded a DH of 6.3, the pH 8.0 incubation a DH of 11.2 and the pH 9.0 incubation a DH of 16.4.

[7] = Kinetics of plasma Trp/LNAA ratio after hydrolysed, intact or mixed lysozyme (Example 11); assay type: in vivo, human; details: inferred from area-under-the-curve
From the text: Exclusion criteria were: chronic and current illness, at the discretion of the investigator; history of psychiatric disorders; use of selective serotonin reuptake inhibitors (SSRI); use of supplements targeting the central nervous system, such as supplements containing tryptophan, ephedrine, or St John's wort; egg allergy; drug abuse; participation in any other study involving investigational or marketed products concomitantly; intolerance to artificial sweeteners; any (history of) gastrointestinal disease that interferes with gastrointestinal function, at the discretion of the investigator; use of medication targeting the gastro-intestinal tract, such as antacids. Finally, for women, pregnancy or the use of a medically not accepted contraceptive method is an exclusion criterion as well. All subjects participating in the experiment signed an Informed Consent Form.
The study was performed according to a randomized, double-blind, crossover design with a washout period between the intake of the different treatments of three days at least.
The drinks were presented as sterile products in bottles with straws. […] A research assistant blind to the dietary conditions conducted the administration of the different drinks.
The subjects visited the site between 8 and 9 am, having fasted for at least 8 hours. A flexible cannula for blood drawings was inserted in their non-dominant forearm. […]

T1 sequence (P00791 60-385): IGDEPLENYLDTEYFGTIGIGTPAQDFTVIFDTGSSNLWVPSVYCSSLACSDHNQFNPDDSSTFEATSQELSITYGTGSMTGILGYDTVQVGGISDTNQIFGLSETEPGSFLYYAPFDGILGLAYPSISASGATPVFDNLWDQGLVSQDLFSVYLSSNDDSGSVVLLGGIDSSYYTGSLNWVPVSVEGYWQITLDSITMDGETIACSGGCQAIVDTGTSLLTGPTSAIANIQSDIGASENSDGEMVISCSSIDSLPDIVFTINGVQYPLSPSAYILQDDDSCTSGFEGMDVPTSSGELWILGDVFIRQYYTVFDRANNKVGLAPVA

For `N[C@@H](CO)C(=O)N[C@@H](Cc1c[nH]c2ccccc12)C(=O)O` [SYN, Ser-Trp] (H-Ser-Trp-OH), the “mood changes (POMS total mood scores)” value (healthy volunteers) was “not significant” and the “increase in plasma Trp/LNAA ratio” value [1] was 263%.
With `N[C@@H](Cc1c[nH]c2ccccc12)C(=O)O` [TRP, L-tryptophan] the “mood (POMS total mood scores)” value (healthy volunteers; 60 min after the intake) was “Comparable improvements of mood”, the “plasma Trp/LNAA” value ([1]; both, human, 0 min) was 0.11 and the “plasma Trp/LNAA” value ([1]; both, human, 30 min) was 0.12. For the same compound, the “plasma Trp/LNAA” value ([1]; both, human, 60 min) was 0.29, the “plasma Trp/LNAA” value ([1]; both, human, 90 min) was 0.31 and the “increase in plasma Trp/LNAA ratio” value ([1]; both, human, 120 min) was 191%. The “plasma Trp/LNAA” value ([1]; both, human, 120 min) was 0.32, the “plasma Trp/LNAA” value ([1]; both, human, 180 min) was 0.24 and the “plasma Trp/LNAA” value ([1]; both, human, 210 min) was 0.20.
With “ALAC: intact alpha-lactalbumin obtained as Biopure (>90% alpha-lactalbumin) from Davisco Foods; in Example 10 part of whey protein (Bipro)” the “quantity of intact protein after incubation with pepsin (SDS-PAGE)” value (“quantity of intact protein” for short) (pepsin [2]) was “almost completely degraded”, the “protease resistant according to the test (more than 50% of protein with original molecular weight present)” value (pepsin [2]; listed as alpha-lactoglobulin) was “not “protease resistant”” and the “protease resistant according to the test (more than 50% of protein with original molecular weight present)” value (pepsin [2]; listed as intact alpha-lactalbumine) was “not protease-resistant”. The “mood changes (POMS total mood scores)” value (healthy volunteers) was “no mood changes”, the “increases in plasma Trp/LNAA as previously found” value [3] was 50-70% and the “increase in plasma Trp/LNAA ratio” value [1] was 67%.
For “beta-lactoglobulin: whey protein constituent of Bipro (Davisco), very low Trp/LNAA ratio (0.04)”, the “protease resistant according to the test (more than 50% of protein with original molecular weight present)” value (pepsin [2]) was “protease resistant” and the “quantity of intact protein” value (pepsin [2]) was “remains largely intact”.
For “lysozyme: hen egg lysozyme (EC 3.2.1.17), intact protein, obtained as Delvozyme L or Delvozyme G from DSM Food Specialties”, the “protease resistant according to the test (more than 50% of protein with original molecular weight present)” value (pepsin [2]) was “protease resistant”, the “quantity of intact protein” value (pepsin [2]) was “not significantly diminished” and the “DH end (%)” value [4] was 1.3%. The “DH end (%)” value (pepsin [5]) was 2.4%, the DH ([6]; pH 7.0, 3 hours at 60 degrees C) was 6.3 and the DH ([6]; pH 8.0, 3 hours at 60 degrees C) was 11.2. For the same compound, the DH ([6]; pH 9.0, 3 hours at 60 degrees C) was 16.4 and the “digestion and uptake into the blood” value [7] was “completely digested and taken up into the blood”.
